B1: CE115HA000 N76S one-arm antibody (antibody, human IgG1, kappa, L234A L235A, N297A, name in Kabat numbering)
heavy: QVQLVESGGGVVQPGRSLRLSCAASGFTFSNAWMHWVRQAPGKGLEWVAQIKAKSNNYATYYAESVKGRFTISRDDSKSSLYLQMNSLKTEDTAVYYCRYVHYGAYYGVDAWGQGTTVTVSSASTKGPSVFPLAPSSKSTSGGTAALGCLVKDYFPEPVTVSWNSGALTSGVHTFPAVLQSSGLYSLSSVVTVPSSSLGTQTYICNVNHKPSNTKVDKKVEPKSCDKTHTCPPCPAPEAAGGPSVFLFPPKPKDTLMISRTPEVTCVVVDVSHEDPEVKFNWYVDGVEVHNAKTKPREEQYASTYRVVSVLTVLHQDWLNGKEYKCKVSNKALPAPIEKTISKAKGQPREPQVYTLPPSRCELTKNQVSLSCAVKGFYPSDIAVEWESNGQPENNYKTTPPVLDSDGSFFLVSKLTVDKSRWQQGNVFSCSVMHEALHNHYTQKSLSLSPDYKDDDDK
chain: EPKSSDKTHTCPPCPAPELLGGPSVFLFPPKPKDTLMISRTPEVTCVVVDVSHEDPEVKFNWYVDGVEVHNAKTKPREEQYNSTYRVVSVLTVLHQDWLNGKEYKCKVSNKALPAPIEKTISKAKGQPREPQVCTLPPSRDELTKNQVSLWCLVKGFYPSDIAVEWESNGQPENNYKTTPPVLDSDGSFFLYSKLTVDKSRWQQGNVFSCSVMHEALHNRYTQKSLSLSP
light: DIVMTQSPLSLPVTPGEPASISCRSSQSLVHSNRNTYLHWYQQKPGQAPRLLIYKVSNRFSGVPDRFSGSGSGTDFTLKISRVEAEDVGVYYCGQGTQVPYTFGQGTKLEIKRTVAAPSVFIFPPSDEQLKSGTASVVCLLNNFYPREAKVQWKVDNALQSGNSQESVTEQDSKDSTYSLSSTLTLSKADYEKHKVYACEVTHQGLSSPVTKSFNRGEC
notes: one-arm antibody (one Fab)
B2: CE115HA000 S74P one-arm antibody (antibody, human IgG1, kappa, L234A L235A, N297A, name in Kabat numbering)
heavy: QVQLVESGGGVVQPGRSLRLSCAASGFTFSNAWMHWVRQAPGKGLEWVAQIKAKSNNYATYYAESVKGRFTISRDDPKNSLYLQMNSLKTEDTAVYYCRYVHYGAYYGVDAWGQGTTVTVSSASTKGPSVFPLAPSSKSTSGGTAALGCLVKDYFPEPVTVSWNSGALTSGVHTFPAVLQSSGLYSLSSVVTVPSSSLGTQTYICNVNHKPSNTKVDKKVEPKSCDKTHTCPPCPAPEAAGGPSVFLFPPKPKDTLMISRTPEVTCVVVDVSHEDPEVKFNWYVDGVEVHNAKTKPREEQYASTYRVVSVLTVLHQDWLNGKEYKCKVSNKALPAPIEKTISKAKGQPREPQVYTLPPSRCELTKNQVSLSCAVKGFYPSDIAVEWESNGQPENNYKTTPPVLDSDGSFFLVSKLTVDKSRWQQGNVFSCSVMHEALHNHYTQKSLSLSPDYKDDDDK
chain: EPKSSDKTHTCPPCPAPELLGGPSVFLFPPKPKDTLMISRTPEVTCVVVDVSHEDPEVKFNWYVDGVEVHNAKTKPREEQYNSTYRVVSVLTVLHQDWLNGKEYKCKVSNKALPAPIEKTISKAKGQPREPQVCTLPPSRDELTKNQVSLWCLVKGFYPSDIAVEWESNGQPENNYKTTPPVLDSDGSFFLYSKLTVDKSRWQQGNVFSCSVMHEALHNRYTQKSLSLSP
light: DIVMTQSPLSLPVTPGEPASISCRSSQSLVHSNRNTYLHWYQQKPGQAPRLLIYKVSNRFSGVPDRFSGSGSGTDFTLKISRVEAEDVGVYYCGQGTQVPYTFGQGTKLEIKRTVAAPSVFIFPPSDEQLKSGTASVVCLLNNFYPREAKVQWKVDNALQSGNSQESVTEQDSKDSTYSLSSTLTLSKADYEKHKVYACEVTHQGLSSPVTKSFNRGEC
notes: one-arm antibody (one Fab)
B3: CE115HA000 S77T one-arm antibody (antibody, human IgG1, kappa, L234A L235A, N297A, name in Kabat numbering)
heavy: QVQLVESGGGVVQPGRSLRLSCAASGFTFSNAWMHWVRQAPGKGLEWVAQIKAKSNNYATYYAESVKGRFTISRDDSKNTLYLQMNSLKTEDTAVYYCRYVHYGAYYGVDAWGQGTTVTVSSASTKGPSVFPLAPSSKSTSGGTAALGCLVKDYFPEPVTVSWNSGALTSGVHTFPAVLQSSGLYSLSSVVTVPSSSLGTQTYICNVNHKPSNTKVDKKVEPKSCDKTHTCPPCPAPEAAGGPSVFLFPPKPKDTLMISRTPEVTCVVVDVSHEDPEVKFNWYVDGVEVHNAKTKPREEQYASTYRVVSVLTVLHQDWLNGKEYKCKVSNKALPAPIEKTISKAKGQPREPQVYTLPPSRCELTKNQVSLSCAVKGFYPSDIAVEWESNGQPENNYKTTPPVLDSDGSFFLVSKLTVDKSRWQQGNVFSCSVMHEALHNHYTQKSLSLSPDYKDDDDK
chain: EPKSSDKTHTCPPCPAPELLGGPSVFLFPPKPKDTLMISRTPEVTCVVVDVSHEDPEVKFNWYVDGVEVHNAKTKPREEQYNSTYRVVSVLTVLHQDWLNGKEYKCKVSNKALPAPIEKTISKAKGQPREPQVCTLPPSRDELTKNQVSLWCLVKGFYPSDIAVEWESNGQPENNYKTTPPVLDSDGSFFLYSKLTVDKSRWQQGNVFSCSVMHEALHNRYTQKSLSLSP
light: DIVMTQSPLSLPVTPGEPASISCRSSQSLVHSNRNTYLHWYQQKPGQAPRLLIYKVSNRFSGVPDRFSGSGSGTDFTLKISRVEAEDVGVYYCGQGTQVPYTFGQGTKLEIKRTVAAPSVFIFPPSDEQLKSGTASVVCLLNNFYPREAKVQWKVDNALQSGNSQESVTEQDSKDSTYSLSSTLTLSKADYEKHKVYACEVTHQGLSSPVTKSFNRGEC
notes: one-arm antibody (one Fab)
B4: CE115HA000 N82aD one-arm antibody (antibody, human IgG1, kappa, L234A L235A, N297A, name in Kabat numbering)
heavy: QVQLVESGGGVVQPGRSLRLSCAASGFTFSNAWMHWVRQAPGKGLEWVAQIKAKSNNYATYYAESVKGRFTISRDDSKNSLYLQMDSLKTEDTAVYYCRYVHYGAYYGVDAWGQGTTVTVSSASTKGPSVFPLAPSSKSTSGGTAALGCLVKDYFPEPVTVSWNSGALTSGVHTFPAVLQSSGLYSLSSVVTVPSSSLGTQTYICNVNHKPSNTKVDKKVEPKSCDKTHTCPPCPAPEAAGGPSVFLFPPKPKDTLMISRTPEVTCVVVDVSHEDPEVKFNWYVDGVEVHNAKTKPREEQYASTYRVVSVLTVLHQDWLNGKEYKCKVSNKALPAPIEKTISKAKGQPREPQVYTLPPSRCELTKNQVSLSCAVKGFYPSDIAVEWESNGQPENNYKTTPPVLDSDGSFFLVSKLTVDKSRWQQGNVFSCSVMHEALHNHYTQKSLSLSPDYKDDDDK
chain: EPKSSDKTHTCPPCPAPELLGGPSVFLFPPKPKDTLMISRTPEVTCVVVDVSHEDPEVKFNWYVDGVEVHNAKTKPREEQYNSTYRVVSVLTVLHQDWLNGKEYKCKVSNKALPAPIEKTISKAKGQPREPQVCTLPPSRDELTKNQVSLWCLVKGFYPSDIAVEWESNGQPENNYKTTPPVLDSDGSFFLYSKLTVDKSRWQQGNVFSCSVMHEALHNRYTQKSLSLSP
light: DIVMTQSPLSLPVTPGEPASISCRSSQSLVHSNRNTYLHWYQQKPGQAPRLLIYKVSNRFSGVPDRFSGSGSGTDFTLKISRVEAEDVGVYYCGQGTQVPYTFGQGTKLEIKRTVAAPSVFIFPPSDEQLKSGTASVVCLLNNFYPREAKVQWKVDNALQSGNSQESVTEQDSKDSTYSLSSTLTLSKADYEKHKVYACEVTHQGLSSPVTKSFNRGEC
notes: one-arm antibody (one Fab)
B5: CE115HA000 Q105E one-arm antibody (antibody, human IgG1, kappa, L234A L235A, N297A, name in Kabat numbering)
heavy: QVQLVESGGGVVQPGRSLRLSCAASGFTFSNAWMHWVRQAPGKGLEWVAQIKAKSNNYATYYAESVKGRFTISRDDSKNSLYLQMNSLKTEDTAVYYCRYVHYGAYYGVDAWGEGTTVTVSSASTKGPSVFPLAPSSKSTSGGTAALGCLVKDYFPEPVTVSWNSGALTSGVHTFPAVLQSSGLYSLSSVVTVPSSSLGTQTYICNVNHKPSNTKVDKKVEPKSCDKTHTCPPCPAPEAAGGPSVFLFPPKPKDTLMISRTPEVTCVVVDVSHEDPEVKFNWYVDGVEVHNAKTKPREEQYASTYRVVSVLTVLHQDWLNGKEYKCKVSNKALPAPIEKTISKAKGQPREPQVYTLPPSRCELTKNQVSLSCAVKGFYPSDIAVEWESNGQPENNYKTTPPVLDSDGSFFLVSKLTVDKSRWQQGNVFSCSVMHEALHNHYTQKSLSLSPDYKDDDDK
chain: EPKSSDKTHTCPPCPAPELLGGPSVFLFPPKPKDTLMISRTPEVTCVVVDVSHEDPEVKFNWYVDGVEVHNAKTKPREEQYNSTYRVVSVLTVLHQDWLNGKEYKCKVSNKALPAPIEKTISKAKGQPREPQVCTLPPSRDELTKNQVSLWCLVKGFYPSDIAVEWESNGQPENNYKTTPPVLDSDGSFFLYSKLTVDKSRWQQGNVFSCSVMHEALHNRYTQKSLSLSP
light: DIVMTQSPLSLPVTPGEPASISCRSSQSLVHSNRNTYLHWYQQKPGQAPRLLIYKVSNRFSGVPDRFSGSGSGTDFTLKISRVEAEDVGVYYCGQGTQVPYTFGQGTKLEIKRTVAAPSVFIFPPSDEQLKSGTASVVCLLNNFYPREAKVQWKVDNALQSGNSQESVTEQDSKDSTYSLSSTLTLSKADYEKHKVYACEVTHQGLSSPVTKSFNRGEC
notes: one-arm antibody (one Fab)
B6: CE115HA000 S62P one-arm antibody (antibody, human IgG1, kappa, L234A L235A, N297A, name in Kabat numbering)
heavy: QVQLVESGGGVVQPGRSLRLSCAASGFTFSNAWMHWVRQAPGKGLEWVAQIKAKSNNYATYYAEPVKGRFTISRDDSKNSLYLQMNSLKTEDTAVYYCRYVHYGAYYGVDAWGQGTTVTVSSASTKGPSVFPLAPSSKSTSGGTAALGCLVKDYFPEPVTVSWNSGALTSGVHTFPAVLQSSGLYSLSSVVTVPSSSLGTQTYICNVNHKPSNTKVDKKVEPKSCDKTHTCPPCPAPEAAGGPSVFLFPPKPKDTLMISRTPEVTCVVVDVSHEDPEVKFNWYVDGVEVHNAKTKPREEQYASTYRVVSVLTVLHQDWLNGKEYKCKVSNKALPAPIEKTISKAKGQPREPQVYTLPPSRCELTKNQVSLSCAVKGFYPSDIAVEWESNGQPENNYKTTPPVLDSDGSFFLVSKLTVDKSRWQQGNVFSCSVMHEALHNHYTQKSLSLSPDYKDDDDK
chain: EPKSSDKTHTCPPCPAPELLGGPSVFLFPPKPKDTLMISRTPEVTCVVVDVSHEDPEVKFNWYVDGVEVHNAKTKPREEQYNSTYRVVSVLTVLHQDWLNGKEYKCKVSNKALPAPIEKTISKAKGQPREPQVCTLPPSRDELTKNQVSLWCLVKGFYPSDIAVEWESNGQPENNYKTTPPVLDSDGSFFLYSKLTVDKSRWQQGNVFSCSVMHEALHNRYTQKSLSLSP
light: DIVMTQSPLSLPVTPGEPASISCRSSQSLVHSNRNTYLHWYQQKPGQAPRLLIYKVSNRFSGVPDRFSGSGSGTDFTLKISRVEAEDVGVYYCGQGTQVPYTFGQGTKLEIKRTVAAPSVFIFPPSDEQLKSGTASVVCLLNNFYPREAKVQWKVDNALQSGNSQESVTEQDSKDSTYSLSSTLTLSKADYEKHKVYACEVTHQGLSSPVTKSFNRGEC
notes: one-arm antibody (one Fab)

The text below walks through data of patent US20240270846A1 (published 2024).
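Note: Amine-coupled CD3 epsilon homodimer, run at 25 °C in HBS-EP+ buffer, ratio is bound amount of each single-residue H chain variant over that of the parent antibody.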

In the test the target is T1, CD3 epsilon homodimer protein (UniProt P07766 23-126).
T1 construct: Immobilized on Sensor chip CM4 by amine coupling; construct not described; also called CD3 (CD3 epsilon)
T1 sequence (P07766 23-126): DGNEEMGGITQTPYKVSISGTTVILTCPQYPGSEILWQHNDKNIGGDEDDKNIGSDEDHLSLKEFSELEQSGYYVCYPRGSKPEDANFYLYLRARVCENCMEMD
Briefly: SPR Biacore T200, CD3 epsilon homodimer on CM4 chip, antibody as analyte. (In general: Surface plasmon resonance follows binding to a sensor surface in real time, without labels.)
Take B1: the “ratio of amounts bound (Y/X vs CE115HA000)” value (from here on “ratio of amounts bound”) was 0.92.

Regarding B2, the “ratio of amounts bound” value amounted to 0.91.

As to B3, the “ratio of amounts bound” value stood at 0.9.

For B4, the “ratio of amounts bound” value was 0.73.

Turning to B5, the “ratio of amounts bound” value was 0.94.

Turning to B6, the “ratio of amounts bound” value was 1.
